The results in this text go back to patent publication US20040043468A1.

For the test, the target named is eIF4E. Put plainly: cell-based or functional assay.

Turning to “dominant negative form of the eIF4E binding protein 4E-BP1 (from UniProt Q13541 1-118)”, the Photinus luciferase activity from the monocistronic PM construct in B104 cells, as a percentage of the activity with a control expression plasmid was 45 % of control and the Photinus luciferase activity from the β-globin 5′ UTR monocistronic construct in B104 cells, as a percentage of the activity with a control expression plasmid is 43 % of control.
